Columns and labels:
[1] = target: recombinant human P450 2E1 (construct 2E1 #18) expressed in E. coli (human) (UniProt P05181); details: scale: nmol 6-hydroxychlorzoxazone formed min^-1
[2] = target: P450 2C1029 (truncated human cytochrome P450 2C10 expressed in E. coli) (human) (UniProt P11712); details: scale: nmol product formed min^-1
[3] = target: P450 2C9/10 purified from human liver microsomes (human) (UniProt P11712); details: scale: nmol product formed min^-1
[4] = target: P450 2C1028 (modified human cytochrome P450 2C10 expressed in E. coli) (human) (UniProt P11712); details: scale: nmol product formed min^-1
[5] = target: recombinant human P450 1A2 (construct 1024) expressed in E. coli (human) (UniProt P05177)
[6] = substrate: CCOc1ccc2nc3ccc(=O)cc-3oc2c1; test: 7-Ethoxyresorufin O-deethylation in P450 1A1 reconstituted system; format: biochemical, human; details: other: 5 nM P450 1A1, 10 nM NADPH-cytochrome P450 reductase
Procedure: (§1) FIG. 42. Substrate concentration-dependent benzo(a)pyrene 3-hydroxylation (A) and 7-ethoxyresorufin O-deethylation (B) in a P450 1A1 reconstutited system. Benzo(a)pyrene 3-hydroxylation were assayed with 25 nM P450 1A1 and 50 nM NADPH-cytochrome P450 reductase. 7-Ethoxyresorufin O-deethylation were assayed with 5 nM P450 1A1 and 10 nM NADPH-cytochrome P450 reductase.
(§2) 7-Ethoxyresorufin O-dealkylation (Burke and Mayer, Drug Metab. Dispos. 3:245-253 (1975); Burke and Mayer, Chem.-Biol. Interactions 45:243-258 (1983)) and benzo(a)pyrene 3-hydroxylation (Nebert and Gelboin, J. Biol. Chem. 243:6242-6249 (1968); Guengerich in Principles and Methods of Toxicology, Hayes, A. W., Ed., 777-814, Raven Press, New York (1989)) were determined as described elsewhere. Protein concentrations were estimated using a bicinchoninic acid (BCA) method according to the instructions supplied by the manufacturer (Pierce Chemical Co., Rockford, Ill.).
(§3) Catalytic activities. The purified P450 1A1 protein was examined for catalytic activities in a conventional reconstitution system containing rabbit NADPH-P450 reductase and L-α-1,2-dilauroyl-sn-glycero-3-phosphocholine. P450 1A1 catalyzed benzo(a)pyrene 3-hydroxylation and 7-ethoxyresorufin O-deethylation at rates of 1.7 and 6.2 nmol product formed min^-1 (nmol P450)^-1, respectively (FIGS. 41A,B). […]

[7] = substrate: c1ccc2c(c1)cc1ccc3cccc4ccc2c1c34; test: Benzo(a)pyrene 3-hydroxylation in P450 1A1 reconstituted system; format: biochemical, human; details: other: 25 nM P450 1A1, 50 nM NADPH-cytochrome P450 reductase
Procedure: as §1, §2, §3

## human liver cytochrome b5 (from UniProt P00167)
[1]
  chlorzoxazone 6-hydroxylation by purified P450 2E1 (Vmax): 5.56
[2]
  tolbutamide hydroxylation, reconstituted system: 1.77
[3]
  tolbutamide hydroxylation, reconstituted system: 0.51
[4]
  tolbutamide hydroxylation, reconstituted system: 0.57

## rabbit liver NADPH-P450 reductase (from UniProt P00389) (enzyme)
[5]
  anaerobic reduction of P450 1A2 (rate of reduction, formation of the Fe2+.CO complex): > 3 min⁻¹

B1: purified recombinant human cytochrome P450 1A1, N-terminally modified (construct #17, SEQ ID NO: 5), expressed in E. coli (Homo sapiens; L2A) (protein)
chain: AFPISMSATEFLLASVIFCLVFWVIRASRPQVPKGLKNPPGPWGWPLIGHMLTLGKNPHLALSRMSQQYGDVLQIRIGSTPVVVLSGLDTIRQALVRQGDDFKGRPDLYTFTLISNGQSMSFSPDSGPVWAARRRLAQNGLKSFSIASDPASSTSCYLEEHVSKEAEVLISTLQELMAGPGHFNPYRYVVVSVTNVICAICFGRRYDHNHQELLSLVNLNNNFGEVVGSGNPADFIPILRYLPNPSLNAFKDLNEKFYSFMQKMVKEHYKTFEKGHIRDITDSLIEHCQEKQLDENANVQLSDEKIINIVLDLFGAGFDTVTTAISWSLMYLVMNPRVQRKIQEELDTVIGRSRRPRLSDRSHLPYMEAFILETFRHSSFVPFTIPHSTTRDTSLKGFYIPKGRCVFVNQWQINHDQKLWVNPSEFLPERFLTPDGAIDKVLSEKVIIFGMGKRKCIGETIARWEVFLFLAILLQRVEFSVPLGVKVDMTPIYGLTMKHACCEHFQMQLRS
notes: made in house; host or cells: E. coli DH5α, vector pCW
[6]
  Km: 0.58 µM
  kcat: 8.3 nmol product formed min^-1 (nmol P450)^-1
[7]
  Km: 15 µM
  kcat: 2.5 nmol product formed min^-1 (nmol P450)^-1

Reference: patent US5886157A, “Expression and purification of human cytochrome P450” (Vanderbilt University, priority 1994, dated 1999)
